The results in this text go back to US20250011468A1 (Novo Nordisk, published 2025).

Assay [1] addresses T1, wild-type FIX with C-terminal His-tag (human, UniProt P00740 47-461).
T1 construct: Secreted mature FIX from expi293F cells; also called WT
Nature of the assay: SPR (Biacore T200), His-tagged FIX captured by anti-His antibody, one-armed antibody as analyte; % of wild-type binding. How it is done:
(§1) SPR analyses were carried out on Biacore 4000 or Biacore T200 instruments (Biacore AB, Uppsala, Sweden). For the experiments on the T200 instrument the following conditions were applied: measurements were conducted at a temperature of 25° C. Anti-His antibody at 25 μg/ml (R&D Systems, catalogue #MAB050) was immobilized on a CM5 sensor chip using standard amine coupling chemistry. […] at 25 nM were injected at a flow rate of 10 μl/min for 1 min and were captured via their His-tag by the immobilized anti-His antibody. Subsequently, 200 nM (with 4-fold serial dilutions), 1600 nM (with 3-fold serial dilutions), and 2000 nM (with 3-fold serial dilution) of mAb4-0004, mAb3-3279 and mAb4-0673, respectively, were injected at a flow rate of 50 μl/min for 5 min to allow for binding to captured FIX variant followed by a 10 min buffer injection allowing for dissociation of the monovalent anti-FIX antibodies. The running buffer used was 20 mM Tris, 150 mM NaCl, 5 mM CaCl₂, 0.05% Tween-20, 1 mg/ml BSA, pH 7.4. This was also used for dilution of anti-FIX antibody and FIX samples. Regeneration of the chip was achieved using 10 mM Glycine pH 2.0. Binding data were analysed according to a 1:1 model using BiaEvaluation 4.1 supplied by the manufacturer (Biacore AB, Uppsala, Sweden). A similar experimental set-up was used for the Biacore 4000 instrument.

For assay [2], the target named is FIX N406A with C-terminal His-tag (human, UniProt P00740 47-461). Nature of the assay: SPR (Biacore T200), His-tagged FIX variant captured by anti-His antibody, one-armed antibody as analyte; % of wild-type binding. How it is done: as §1
Chain of FIX N406A with C-terminal His-tag (P00740 other isoform, or with tags, fused parts or gaps N406A N406A limits assumed): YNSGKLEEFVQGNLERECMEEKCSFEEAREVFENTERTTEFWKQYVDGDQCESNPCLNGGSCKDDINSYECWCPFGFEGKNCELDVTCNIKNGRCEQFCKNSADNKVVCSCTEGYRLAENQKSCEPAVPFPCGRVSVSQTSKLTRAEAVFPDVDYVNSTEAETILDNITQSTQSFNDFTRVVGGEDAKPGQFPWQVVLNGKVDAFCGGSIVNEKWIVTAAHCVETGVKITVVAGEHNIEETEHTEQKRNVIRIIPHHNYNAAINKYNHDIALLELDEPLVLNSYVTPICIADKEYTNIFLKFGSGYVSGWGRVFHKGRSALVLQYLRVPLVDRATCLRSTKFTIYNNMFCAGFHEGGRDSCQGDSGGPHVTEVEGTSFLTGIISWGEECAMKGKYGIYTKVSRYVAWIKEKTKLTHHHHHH
(§2) A more detailed binding analysis was conducted for residues defined as epitope residues (see example 6) using the Biacore T200 instrument.

Assay [3] addresses FIX H256A with C-terminal His-tag (human, UniProt P00740 47-461). The assay is described as above. How it is done: as §1, §2
For assay [4], the target named is FIX H257A with C-terminal His-tag (human, UniProt P00740 47-461). Described as above. As for the experimental part:
as §1, §2

For assay [5], the target named is FIX N258A with C-terminal His-tag (human, UniProt P00740 47-461). Described as above. How it is done: as §1, §2
Chain of FIX N258A with C-terminal His-tag (P00740 other isoform, or with tags, fused parts or gaps N258A N258A limits assumed): as the sequence (P00740 other isoform, or with tags, fused parts or gaps N406A N406A limits assumed) above, with N258A, A406N counted along it
For assay [6], the target named is FIX K411A with C-terminal His-tag (human, UniProt P00740 47-461). The assay is described as above. How it is done:
as §1, §2

The target in assay [7] is FIX R403A with C-terminal His-tag (human, UniProt P00740 47-461). The description is as above. As for the experimental part:
as §1, §2

Assay [8] addresses FIX K293A with C-terminal His-tag (human, UniProt P00740 47-461). The description is as above. As for the experimental part: as §1, §2
Assay [9] addresses FIX Y404F with C-terminal His-tag (human, UniProt P00740 47-461). The description is as above. How it is done: as §1, §2
Assay [10] addresses FIX E410Q with C-terminal His-tag (human, UniProt P00740 47-461). The assay is described as above. As for the experimental part: as §1, §2

Chain of FIX Y404F with C-terminal His-tag (P00740 other isoform, or with tags, fused parts or gaps Y404F Y404F limits assumed): as the sequence (P00740 other isoform, or with tags, fused parts or gaps N406A N406A limits assumed) above, with Y404F, A406N counted along it
Chain of FIX H257A with C-terminal His-tag (P00740 other isoform, or with tags, fused parts or gaps H257A H257A limits assumed): as the sequence (P00740 other isoform, or with tags, fused parts or gaps N406A N406A limits assumed) above, with H257A, A406N counted along it
T1 sequence (P00740 other isoform, or with tags, fused parts or gaps limits assumed): as the sequence (P00740 other isoform, or with tags, fused parts or gaps N406A N406A limits assumed) above, with A406N counted along it
Chain of FIX R403A with C-terminal His-tag (P00740 other isoform, or with tags, fused parts or gaps R403A R403A limits assumed): as the sequence (P00740 other isoform, or with tags, fused parts or gaps N406A N406A limits assumed) above, with R403A, A406N counted along it
Chain of FIX K411A with C-terminal His-tag (P00740 other isoform, or with tags, fused parts or gaps K411A K411A limits assumed): as the sequence (P00740 other isoform, or with tags, fused parts or gaps N406A N406A limits assumed) above, with A406N, K411A counted along it
Chain of FIX K293A with C-terminal His-tag (P00740 other isoform, or with tags, fused parts or gaps K293A K293A limits assumed): as the sequence (P00740 other isoform, or with tags, fused parts or gaps N406A N406A limits assumed) above, with K293A, A406N counted along it
Chain of FIX E410Q with C-terminal His-tag (P00740 other isoform, or with tags, fused parts or gaps E410Q E410Q limits assumed): as the sequence (P00740 other isoform, or with tags, fused parts or gaps N406A N406A limits assumed) above, with A406N, E410Q counted along it
Chain of FIX H256A with C-terminal His-tag (P00740 other isoform, or with tags, fused parts or gaps H256A H256A limits assumed): as the sequence (P00740 other isoform, or with tags, fused parts or gaps N406A N406A limits assumed) above, with H256A, A406N counted along it

B1: mAb3-3279 (monovalent one-armed variant of mAb1-1307) (antibody, V domains shown)
VH: EVQLVESGGGLVQPGRSLRLSCAASGFTFGDYAMHWVRQAPGKGLEWVSGISWNSGSIGYADSVKGRFTISRDNAKNSLYLQMNSLRAEDTALYYCAKGQYDEDAGMDVWGQGTTVTVSS
VL: DIQMTQSPSSLSASVGDRVTITCRASQSISSYLNWYQQKPGKAPKLLIYAASSLQSGVPSRFSGSGSGTDFTLTISSLQPEDFATYYCQQGYPTWTFGGGTKVEIK
Take B1: the “Binding (%) relative to wild-type” value was found to be 100% in [1]; 12% in [2]; 32% in assay [3]; 8% in assay [4]; 82% in assay [5]; 71% in assay [6]. Moreover, the “Binding (%) relative to wild-type” value was found to be 94% in [7], 23% in [8], 76% in [9] and 39% in [10].
